Source: the RNAGym collection of RNA variant scans (doi:10.1073/pnas.2313332121)

B1: TPR t1 (parent)
chain: GACCAAUCUGCCCUCAGAGCUCGAGAACAUCUUCGGAUGCAGAGGAGGCAGGCUUCGGUGGCGCGAUAGCGCCAACGUCCUCAACCUCCAAUGCAUCCCACCACAUGAUGAUGCCUGAAGAGCCUUGGUUUUUUG

Variants of: B1
Assay: polymerase ribozyme fitness, log enrichment relative to wild type (log ratio); higher = more active; in vitro selection for triplet polymerase activity
In short: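 Mutant libraries of both subunits of a heterodimeric triplet polymerase ribozyme were PCR-built, transcribed, and selected once in triplicate, with frozen incubation at −7 °C and capture of gel-excised extended constructs on streptavidin beads before RT-PCR. Illumina sequencing of input and output libraries was filtered to genotypes with ≥10 input reads and ≥1 read per output. Fitness is the logarithm of genotype enrichment over wild-type enrichment, using inverse-variance-weighted replicate averages. The logarithm is base 2.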

| Variant | polymerase ribozyme fitness (log ratio) |
| --- | --- |
| U21C G58C | -0.199 |
| C22A G61A U129G | -5.57 |
| U21C U54C G63C C80A A105C C115U A118C | -7.47 |
| C22A C79U U87A | -4.8 |
| U21C G35A U130A | -4.76 |
| U21G G39C A41G C115A | -2 |
| U21G A46G G48U A100C C102A | -5.54 |
| U21C G42A | -1.45 |
| C22A C64U | -4.37 |
| C22A C40U C49A C72U C123G | -5.79 |
| C22G | -2.97 |
| C22A | -4.89 |
| C22A C124A U134C | -4.93 |
| C22A A46C U131A | -4.88 |
| U21C G57U C72G | -2.29 |
| U21G C34A C49U C102G C114A | -8.62 |
| U21C C72G C85A U116C | -3.42 |
| C22A C70A G122U | -5.4 |
| U21C C72G A90C | -1.98 |
| U21G G51U G69C A103U A111U G122U | -7.01 |
| C22A G42A C73A | -7.34 |
| U21G C88A | -1.66 |
| C22A A37U A43C C114A A118G | -6.5 |
| U21G G47C C85G G93C A100U C101U | -5.69 |

| Variant | polymerase ribozyme fitness (log ratio) |
| --- | --- |
| U21G C22A A74G | -4.4 |
| U21G C40U G47U G63U C98A G120C | -7.2 |
| C22A C40U C73U U112A U129C | -4.96 |
| U21C G52C G61A C82A | -0.816 |
| U21G A37G G61A G135U | -2.33 |
| C22A C82U A90U U112A | -4.93 |
| C22A A111C A119U | -6.95 |
| U21C U78A A91U | -1.45 |
| C22A G36U C88U C115A | -5.17 |
| U21C U38G C49A G120U U130G U131G | -4.41 |
| U21C C62U A83U U87G | 0.103 |
| U21G C72G | -1.39 |
| C22A G63A C94A A100U C115A | -5.85 |
| U21C G45A U59A G61A | -1.1 |
| U21C G60C | -0.312 |
| U21G G45U C101A | -3.2 |
| U21G G61C | -3.98 |
| U21G G36A U54A G63U C82A C123A | -3.52 |
| U21C A27G C56A C88A | -4.66 |
| C22A C49G G69U C85U | -2.28 |
| C22G A27C | -4.37 |
| U21G C64U | -2.06 |
| C22G A37U C88U | -4.47 |
| U21G G120U C123A | -1.07 |

| Variant | polymerase ribozyme fitness (log ratio) |
| --- | --- |
| C22G A29C C89A G120C | -6.79 |
| C22G A27C C56G G120C | -4.73 |
| U21C A46G C53A G71C C98U | -6.73 |
| U21G A95C | -2.54 |
| U21G C123G U126G | 0.0716 |
| C22A C64U C114G G135U | -5.66 |
| U21G C97G U112G | -5.7 |
| U21C U112G | -0.886 |
| C22A G25C G45C G48U U59A C115U | -6.59 |
| C22A C73U A83G C115A | -4.8 |
| U21C A26G | -2.38 |
| U21C C101U | -0.578 |
| C22A G60A | -4.26 |
| C22A G60U | -4.21 |
| C22A C115G | -3.77 |
| C22A C115U | -6.25 |
| C22A C115A | -4.55 |
| C22A U78C | -6.19 |
| U21C G57U | -0.235 |
| C22G A26C C31G G45U G60U | -8.09 |
| U21C G71A G93A | -1.91 |
| U21G G48U U59C A74U C114A | -2.3 |
| C22A C70G A111C G113C | -6.22 |
| C22A G61A A66C | -5.28 |

| Variant | polymerase ribozyme fitness (log ratio) |
| --- | --- |
| C22A G23A G35A C82G C89U C104U A111U | -6.73 |
| C22A C28U | -4.42 |
| U21C A95G | -0.566 |
| C22A A84U | -5.54 |
| U21C C49A U78G C123A | -1.05 |
| U21G C72A A121U | 0.876 |
| U21G G71U | -2.37 |
| U21C A121C | 1.32 |
| U21G A46C C86U | -2.16 |
| C22A G120A | -4.53 |
| C22A U67C C80A U96A U109A | -6.8 |
| C22A G39U | -5.33 |
| U21G C56A C70U C89A G113U | -3.69 |
| U21C G48U U112C A118U | 1.11 |
| C22A C73G | -4.45 |
| C22A C73U | -5.07 |
| C22G A24U U30C A46G G48U G60C G110U | -6.93 |
| U21C A29U C62U A84C U112A A119G G120C | -1.53 |
| C22A G44C U112A | -3.24 |
| U21C C34A C49U U78C G120A | -2.92 |
| C22G A29U G120U U133A | -5.17 |
| C22G A29C A84C | -3.73 |
| C22A C56A | -3.44 |
| C22A G52A C124U | -4.37 |

| Variant | polymerase ribozyme fitness (log ratio) |
| --- | --- |
| C22A C72U | -4.98 |
| C22A C72G | -4.59 |
| U21G G47A | -0.934 |
| C22A G60A U96A U130C | -4.99 |
| U21G G39A | -1.39 |
| C22A U54C | -4.71 |
| U21G U87G U133G | -3.13 |
| C22A G44U C62U U112G | -5.2 |
| C22A A29G C40A G63U A74U G93A G113C G120U | -7.43 |
| U21G C40U U87G | -1.55 |
| U21G G52A C102A C124U | -2.14 |
| U21G C73A C94A | -2.37 |
| C22A C82G U112G | -5.26 |
| C22A C123A U125G | -4.58 |
| C22A U33C C49U C79A C123G | -7.05 |
| U21G U55G U112A | 1.42 |
| C22A A26C A27U C86A U112C | -6.59 |
| U21C G69A C104U | -2.28 |
| U21C G39A U54A U78A C98U G110U | -6.3 |
| U21C A46G C53A C98U | -3.28 |
| U21G C22A A27U A95U C123A | -5.39 |
| C22A G60C U87A | -5.83 |
| C22A A119G | -3.88 |
| U21C G120U | -0.0201 |

| Variant | polymerase ribozyme fitness (log ratio) |
| --- | --- |
| U21C G48U C53A G117A | -1.81 |
| C22A C56A U112C | -2.01 |
| U21C C22G G63A G77U C94A G110C U112C | -7.86 |
| U21C G71A C101U G117A | -2.85 |
| C22A A37G U81A A121C | -6.04 |
| U21C G63C G120A | -0.168 |
| U21C G63A C82A C124G U133G | -0.991 |
| U21C C56A G69U C70U U96A A119G | -2.46 |
| U21C C56U | 0.0213 |
| C22A A27G G60C A83G | -6.08 |
| C22A G61U C102A G122A | -5.53 |
| C22A G61U C115U G128C U131A U134C | -5.61 |
| C22A A27C C124A | -4.12 |
| U21C G45C C56U U109A A111U C124G | -4.35 |
| U21G C88A C97A A121C | -5.55 |
| C22A G110U | -5.03 |
| U21G C72U A75U | -1.05 |
| U21C C72U G93A U96G | -2.4 |
| C22G A26C G110U | -6.02 |
| U21C C88G A121U | -0.0258 |
| U21C A29G A37U G71U | -1.56 |
| U21G A105U G120A | -2.92 |
| C22G A37U A41C C53U | -3.91 |
| C22A C34U G36U G61C A111U | -6.58 |

| Variant | polymerase ribozyme fitness (log ratio) |
| --- | --- |
| U21C A29U C53G G61A C89U | -3.59 |
| U21G C62A | -2.26 |
| U21C A37G A46C C64G A100C C115U G117C | -7.24 |
| U21C C72U | -0.489 |
| C22A A66C G69U G93C | -5.35 |
| C22A A111C | -4.49 |
| U21G C40G | -0.951 |
| C22A C53U C64U C124U | -3.7 |
| U21C G71U | -0.75 |
| U21C G36U C64U | -0.911 |
| U21C U54A G93A A111C | -0.948 |
| U21C C70U A111C | -0.344 |
| C22A A26G A83U | -3.1 |
| U21C C73A C89A | -2.96 |
| C22A C123A | -4.13 |
| U21C A27U | -4.9 |
| U21C C49A A84U C88G C101G U133A | -2 |
| U21C G63C | -0.656 |
| U21G U38C G71C C99G C114U G120U A121U | -7.22 |
| U21C G42A G52U C124A U125A | -1.88 |
| C22A C31G C62U C94A G110C | -6.66 |
| U21G G93A C114G | -4.94 |
| U21G A46U G69U G117C | -4.95 |
